The values that follow come from PMC13381803 (2026).

In experiment [1] the target is T1, Hna with a C-terminal GFP tag (Sinorhizobium meliloti).
T1 chain: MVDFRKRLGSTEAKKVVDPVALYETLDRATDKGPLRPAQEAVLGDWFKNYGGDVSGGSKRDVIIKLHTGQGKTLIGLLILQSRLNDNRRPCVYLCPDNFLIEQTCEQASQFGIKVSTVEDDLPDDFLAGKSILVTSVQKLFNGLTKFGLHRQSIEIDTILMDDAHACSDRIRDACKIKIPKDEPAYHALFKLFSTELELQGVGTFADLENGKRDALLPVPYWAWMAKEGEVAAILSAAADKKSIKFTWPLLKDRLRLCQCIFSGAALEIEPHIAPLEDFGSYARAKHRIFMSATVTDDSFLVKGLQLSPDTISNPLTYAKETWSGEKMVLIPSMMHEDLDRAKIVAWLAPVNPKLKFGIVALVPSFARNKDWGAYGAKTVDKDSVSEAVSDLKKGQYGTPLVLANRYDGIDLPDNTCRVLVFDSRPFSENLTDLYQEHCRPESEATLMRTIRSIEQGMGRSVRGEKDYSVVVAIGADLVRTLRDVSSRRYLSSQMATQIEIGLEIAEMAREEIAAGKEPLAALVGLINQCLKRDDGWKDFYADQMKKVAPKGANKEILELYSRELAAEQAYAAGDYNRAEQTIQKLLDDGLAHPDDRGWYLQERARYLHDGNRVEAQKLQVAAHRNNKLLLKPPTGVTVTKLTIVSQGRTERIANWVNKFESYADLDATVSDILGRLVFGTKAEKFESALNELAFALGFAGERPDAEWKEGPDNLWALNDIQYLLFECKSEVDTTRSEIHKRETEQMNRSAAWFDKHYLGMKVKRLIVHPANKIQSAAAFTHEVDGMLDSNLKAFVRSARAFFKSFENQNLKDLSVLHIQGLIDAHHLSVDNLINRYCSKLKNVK
The experiment is described as follows: FP; without ATP.

Experiment [2] has as its target T1, Hna with a C-terminal GFP tag. The experiment is described as follows: FP; with ATP.

B1: Hna (helicase-nuclease abortive infection), wild type, Sinorhizobium meliloti (enzyme)
chain: T1 chain
The term Kd denotes a measure of binding affinity in units of concentration. Low values mean higher affinity, high ones lower affinity. For the molecule B1, the values for the equilibrium dissociation constant (Kd) in experiment [1] and in experiment [2] were 4.46 µM and 0.337 µM, respectively.
